The values that follow are results of earlier work, collected in PMC6154725.

For this series, the target named is Tyr7 (UniProt position 9, HHGWGYGQDDG). The experiment in a line: NMR. Conditions: solution, Zn enzyme, no ligand mentioned.

As for “Carbonic anhydrase II (HCA II) (Homo sapiens)”, the pKa is listed as around 7.

What is called pKa is the pH at which an ionisable group is half protonated.
